In this data set the test system is Escherichia coli TOP10. In words: shrunken log2 fold change of peptide-encoding DNA abundance (4.5 h post-induction vs induction); higher = less antimicrobial activity (less host growth inhibition). The following applies: time post-induction: 4.5 h; library: site-saturation at positions 5, 18, 19, 20.
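Further: peptides expressed intracellularly from a pBAD plasmid library in pooled LB shake-flask culture, induced with 0.3% L-arabinose, DNA abundance read by NGS, three biological replicates, DESeq2 with apeglm shrinkage.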

For the sequence RRIRQRPPRLPRPRPRPQKFPRP, the “shrunken log2 fold change” value is -0.283.
As to RRIRARPPRLPRPRPRPDKLPRP, the “shrunken log2 fold change” value turned out to be 0.105.
In the case of RRIRMRPPRLPRPRPRPDKYPRP, the “shrunken log2 fold change” value was -0.212.
For RRIRMRPPRLPRPRPRPVYIPRP, the “shrunken log2 fold change” value is -0.0842.
Turning to RRIRRRPPRLPRPRPRPVQQPRP, the “shrunken log2 fold change” value was determined as 0.213.
The same measure for RRIRHRPPRLPRPRPRPLRNPRP: -0.0741.
In the case of RRIRKRPPRLPRPRPRPPGPPRP it was 1.04; in that of RRIRLRPPRLPRPRPRPFIFPRP, -0.356; in that of RRIRTRPPRLPRPRPRPKSDPRP, -0.146.
In the case of RRIRCRPPRLPRPRPRPNRTPRP it was -0.0547; in that of RRIRARPPRLPRPRPRPHQGPRP, -0.0611.
RRIRRRPPRLPRPRPRPINQPRP: the “shrunken log2 fold change” value amounted to 0.0137.
The same measure for RRIRYRPPRLPRPRPRPSTTPRP: -0.717; for RRIRHRPPRLPRPRPRPHVIPRP: -0.302; for RRIRNRPPRLPRPRPRPTVDPRP: 0.0566.
In the case of RRIRIRPPRLPRPRPRPIHHPRP it was -0.65; in that of RRIRNRPPRLPRPRPRPGIPPRP, -0.0284; in that of RRIRVRPPRLPRPRPRPNDAPRP, -0.231.
Regarding RRIRVRPPRLPRPRPRPTFIPRP, the “shrunken log2 fold change” value was -0.166.
With RRIRWRPPRLPRPRPRPRATPRP, the “shrunken log2 fold change” value is 1.26.
The same measure for RRIRVRPPRLPRPRPRPEPRPRP: 0.708; for RRIRKRPPRLPRPRPRPFSAPRP: -0.12.
For RRIRKRPPRLPRPRPRPSDHPRP, the “shrunken log2 fold change” value was -0.239.
The same measure for RRIRERPPRLPRPRPRPMWPPRP: 0.186.
As to RRIRLRPPRLPRPRPRPNRIPRP, the “shrunken log2 fold change” value was -0.0157.
The same measure for RRIRPRPPRLPRPRPRPSIRPRP: -0.306; for RRIRPRPPRLPRPRPRPRWMPRP: 0.412.
As to RRIRSRPPRLPRPRPRPCKWPRP, the “shrunken log2 fold change” value is -0.053.
Turning to RRIRCRPPRLPRPRPRPQYEPRP, the “shrunken log2 fold change” value is -0.119.
The same measure for RRIRSRPPRLPRPRPRPIHHPRP: -0.362.
RRIRMRPPRLPRPRPRPGSKPRP: the “shrunken log2 fold change” value was 0.479.
In the case of RRIRFRPPRLPRPRPRPQGIPRP it was 0.0254.
In the case of RRIRGRPPRLPRPRPRPWSGPRP it was 0.0316.
Turning to RRIRVRPPRLPRPRPRPTCDPRP, the “shrunken log2 fold change” value is -0.156.
In the case of RRIRGRPPRLPRPRPRPYCNPRP it was -0.411; in that of RRIRRRPPRLPRPRPRPCGTPRP, 0.363.
Take RRIRKRPPRLPRPRPRPQGQPRP: the “shrunken log2 fold change” value is -0.00726.
Turning to RRIRIRPPRLPRPRPRPQDRPRP, the “shrunken log2 fold change” value was -0.007.
The same measure for RRIRSRPPRLPRPRPRPQAQPRP: -0.121.
As to RRIRNRPPRLPRPRPRPANPPRP, the “shrunken log2 fold change” value is 0.0813.
Turning to RRIRSRPPRLPRPRPRPRFHPRP, the “shrunken log2 fold change” value is -0.302.
The same measure for RRIRARPPRLPRPRPRPKCMPRP: 0.0351; for RRIRIRPPRLPRPRPRPLDFPRP: 0.0619; for RRIRGRPPRLPRPRPRPPNNPRP: 0.835.
In the case of RRIRYRPPRLPRPRPRPKAGPRP it was -0.118.
As to RRIRARPPRLPRPRPRPYAYPRP, the “shrunken log2 fold change” value worked out at 0.104.
Consider RRIRIRPPRLPRPRPRPIPWPRP, for which the “shrunken log2 fold change” value is -0.533.
On to RRIRTRPPRLPRPRPRPLLIPRP, for which the “shrunken log2 fold change” value is -0.0383.
Turning to RRIRNRPPRLPRPRPRPMCMPRP, the “shrunken log2 fold change” value is -0.106.
Take RRIRERPPRLPRPRPRPQHIPRP: the “shrunken log2 fold change” value was -0.15.
Turning to RRIRLRPPRLPRPRPRPLAGPRP, the “shrunken log2 fold change” value worked out at 0.0705.
RRIRLRPPRLPRPRPRPFFQPRP: the “shrunken log2 fold change” value was determined as 0.152.
Take RRIRDRPPRLPRPRPRPGMAPRP: the “shrunken log2 fold change” value stood at 0.22.
With RRIRPRPPRLPRPRPRPKGEPRP, the “shrunken log2 fold change” value came to 0.125.
The same measure for RRIRLRPPRLPRPRPRPHVCPRP: -0.247; for RRIRHRPPRLPRPRPRPSQFPRP: -0.247; for RRIRYRPPRLPRPRPRPGVSPRP: 0.0695.
With RRIRPRPPRLPRPRPRPTHFPRP, the “shrunken log2 fold change” value is 0.442.
On to RRIRWRPPRLPRPRPRPNKRPRP, for which the “shrunken log2 fold change” value amounted to 0.149.
On to RRIRSRPPRLPRPRPRPMCDPRP, for which the “shrunken log2 fold change” value was -0.147.
The same measure for RRIRPRPPRLPRPRPRPTVNPRP: -0.157; for RRIRARPPRLPRPRPRPNDRPRP: -0.0519.
On to RRIRWRPPRLPRPRPRPSCFPRP, for which the “shrunken log2 fold change” value turned out to be 0.486.
Consider RRIRVRPPRLPRPRPRPIACPRP, for which the “shrunken log2 fold change” value is 0.0889.
For the sequence RRIRVRPPRLPRPRPRPPIWPRP, the “shrunken log2 fold change” value was -0.109.
In the case of RRIRERPPRLPRPRPRPIDEPRP it was 0.0844; in that of RRIRLRPPRLPRPRPRPVSCPRP, -0.0041; in that of RRIRLRPPRLPRPRPRPGPDPRP, 0.953.
In the case of RRIRVRPPRLPRPRPRPHKYPRP it was -0.725.
Consider RRIRHRPPRLPRPRPRPAISPRP, for which the “shrunken log2 fold change” value was -0.121.
As for RRIRQRPPRLPRPRPRPVVAPRP, the “shrunken log2 fold change” value came to 0.174.
Turning to RRIRTRPPRLPRPRPRPHLKPRP, the “shrunken log2 fold change” value is -0.207.
The same measure for RRIRFRPPRLPRPRPRPFEMPRP: -0.0734; for RRIRFRPPRLPRPRPRPQKGPRP: 0.107.
Turning to RRIRCRPPRLPRPRPRPSYQPRP, the “shrunken log2 fold change” value is -0.923.
In the case of RRIRRRPPRLPRPRPRPRYEPRP it was 0.0341; in that of RRIRLRPPRLPRPRPRPGQTPRP, 0.277; in that of RRIRNRPPRLPRPRPRPVSHPRP, -0.0709.
In the case of RRIRWRPPRLPRPRPRPWHYPRP it was -0.0627; in that of RRIRKRPPRLPRPRPRPFDTPRP, -0.0262.
Regarding RRIRERPPRLPRPRPRPMCPPRP, the “shrunken log2 fold change” value was -0.0308.
In the case of RRIRWRPPRLPRPRPRPYSFPRP it was -0.107; in that of RRIRWRPPRLPRPRPRPFPGPRP, -0.0199; in that of RRIRVRPPRLPRPRPRPWNVPRP, -0.0441.
The same measure for RRIRPRPPRLPRPRPRPHQHPRP: 2.05; for RRIRCRPPRLPRPRPRPMYAPRP: 0.0401.
RRIRVRPPRLPRPRPRPCGIPRP: the “shrunken log2 fold change” value worked out at 0.0878.
The same measure for RRIRNRPPRLPRPRPRPEPPPRP: 0.758; for RRIRMRPPRLPRPRPRPQMDPRP: 0.224; for RRIRHRPPRLPRPRPRPNQVPRP: 0.0339.
The same measure for RRIRLRPPRLPRPRPRPAVGPRP: -0.0315; for RRIRFRPPRLPRPRPRPCVFPRP: -0.0936; for RRIRERPPRLPRPRPRPSHKPRP: -0.437.
For RRIRNRPPRLPRPRPRPTTWPRP, the “shrunken log2 fold change” value is -0.246.
The same measure for RRIRGRPPRLPRPRPRPMVLPRP: -0.0349.
In the case of RRIRYRPPRLPRPRPRPQGKPRP it was -0.00664.
In the case of RRIRPRPPRLPRPRPRPLVAPRP it was 0.101.
In the case of RRIRQRPPRLPRPRPRPYFCPRP, the “shrunken log2 fold change” value is -0.396.
The same measure for RRIRARPPRLPRPRPRPQHPPRP: 0.29; for RRIRQRPPRLPRPRPRPAGMPRP: -0.148; for RRIRYRPPRLPRPRPRPLAPPRP: 0.107.
The same measure for RRIRYRPPRLPRPRPRPYDYPRP: -0.145.
As for RRIRHRPPRLPRPRPRPEPVPRP, the “shrunken log2 fold change” value turned out to be 0.0556.
Turning to RRIRMRPPRLPRPRPRPYIRPRP, the “shrunken log2 fold change” value was -0.13.
In the case of RRIRWRPPRLPRPRPRPNDTPRP it was -0.268.
As to RRIRPRPPRLPRPRPRPSFAPRP, the “shrunken log2 fold change” value worked out at 0.258.
Turning to RRIRWRPPRLPRPRPRPWTKPRP, the “shrunken log2 fold change” value is -0.0653.
RRIRPRPPRLPRPRPRPQYSPRP: the “shrunken log2 fold change” value was -0.0482.
As to RRIRARPPRLPRPRPRPSYIPRP, the “shrunken log2 fold change” value is -0.647.
As for RRIRLRPPRLPRPRPRPMIYPRP, the “shrunken log2 fold change” value was -0.0701.
As for RRIRFRPPRLPRPRPRPKAQPRP, the “shrunken log2 fold change” value is -0.0881.
The same measure for RRIRSRPPRLPRPRPRPTSPPRP: 0.742; for RRIRKRPPRLPRPRPRPYRDPRP: -0.0176.
As to RRIRERPPRLPRPRPRPIRVPRP, the “shrunken log2 fold change” value was -0.679.
The same measure for RRIRTRPPRLPRPRPRPPQSPRP: 0.441; for RRIRQRPPRLPRPRPRPDVGPRP: -0.0428; for RRIRVRPPRLPRPRPRPAQDPRP: 0.0947.
Take RRIRARPPRLPRPRPRPICLPRP: the “shrunken log2 fold change” value amounted to 0.425.
With RRIRDRPPRLPRPRPRPSGCPRP, the “shrunken log2 fold change” value is 0.0451.
In the case of RRIRIRPPRLPRPRPRPEINPRP, the “shrunken log2 fold change” value was -0.993.
As for RRIRTRPPRLPRPRPRPGNHPRP, the “shrunken log2 fold change” value was -0.731.
The same measure for RRIRWRPPRLPRPRPRPKLDPRP: 0.206; for RRIRDRPPRLPRPRPRPMVDPRP: -0.0109.
As to RRIRHRPPRLPRPRPRPLMAPRP, the “shrunken log2 fold change” value was -0.206.
RRIRRRPPRLPRPRPRPAQQPRP: the “shrunken log2 fold change” value is 0.938.

(Values after the supplement of paper PMC9112550, “Optimization of the antimicrobial peptide Bac7 by deep mutational scanning” (BMC Biology, 2022).)
